The text below walks through data of patent publication US20030044809A1, “Nucleic acid binding of multi-zinc finger transcription factors” (published 2003).

Sequences and labels used below:
B1: FLAG-tagged SIP1 (other, mouse, UniProt Q9R0G7 1-1214, looked up)
chain: MKQPIMADGPRCKRRKQANPRRKNVVNYDNVVDAGSETDEEDKLHIAEDDSLANPLDQDTSPASMPNHESSPHMSQGLLPREEEEEELRESVVEHSWHSGEILQASVAGPEEMKEDYDAMGPEATIQTTINNGTVKNANCTSDFEEYFAKRKLEERDGHAVSIEEYLQRSDTAIIYPEAPEELSRLGTPEANGQEENDLPPGTPDAFAQLLTCPYCDRGYKRLTSLKEHIKYRHEKNEENFSCPLCSYTFAYRTQLERHMVTHKPGTDQHQMLTQGAGNRKFKCTECGKAFKYKHHLKEHLRIHSGEKPYECPNCKKRFSHSGSYSSHISSKKCIGLISVNGRMRNNIKTGSSPNSVSSSPTNSAITQLRNKLENGKPLSMSEQTGLLKIKTEPLDFNDYKVLMATHGFSGSSPFMNGGLGATSPLGVHPSAQSPMQHLGVGMEAPLLGFPTMNSNLSEVQKVLQIVDNTVSRQKMDCKTEDISKLKGYHMKDPCSQPEEQGVTSPNIPPVGLPVVSHNGATKSIIDYTLEKVNEAKACLQSLTTDSRRQISNIKKEKLRTLIDLVTDDKMIENHSISTPFSCQFCKESFPGPIPLHQHERYLCKMNEEIKAVLQPHENIVPNKAGVFVDNKALLLSSVLSEKGLTSPINPYKDHMSVLKAYYAMNMEPNSDELLKISIAVGLPQEFVKEWFEQRKVYQYSNSRSPSLERTSKPLAPNSNPTTKDSLLPRSPVKPMDSITSPSIAELHNSVTSCDPPLRLTKSSHFTNIKAVDKLDHSRSNTPSPLNLSSTSSKNSHSSSYTPNSFSSEELQAEPLDLSLPKQMREPKGIIATKNKTKATSINLDHNSVSSSSENSDEPLNLTFIKKEFSNSNNLDNKSNNPVFGMNPFSAKPLYTPLPPQSAFPPATFMPPVQTSIPGLRPYPGLDQMSFLPHMAYTYPTGAATFADMQQRRKYQRKQGFQGDLLDGAQDYMSGLDDMTDSDSCLSRKKIKKTESGMYACDLCDKTFQKSSSLLRHKYEHTGKRPHQCQICKKAFKHKHHLIEHSRLHSGEKPYQCDKCGKRFSHSGSYSQHMNHRYSYCKREAEEREAAEREAREKGHLEPTELLMNRAYLQSITPQGYSDSEERESMPRDGESEKEHEKEGEEGYGKLRRRDGDEEEEEEEEESENKSMDTDPETIRDEEETGDHSMDDSSEDGKMETKSDHEEDNMEDGM
notes: range 1-1214; Produced in COS1 cells from pCDNA3; tested in total cell extract; also called FLAG-tagged SIP1FS; pCDNA3-SIP1 (Flag-tagged); not shown: FLAG tag at the N-terminus
B2: Myc-tagged full size SIP1 (SIP1FS) (other, mouse, UniProt Q9R0G7 1-1214, looked up)
chain: MKQPIMADGPRCKRRKQANPRRKNVVNYDNVVDAGSETDEEDKLHIAEDDSLANPLDQDTSPASMPNHESSPHMSQGLLPREEEEEELRESVVEHSWHSGEILQASVAGPEEMKEDYDAMGPEATIQTTINNGTVKNANCTSDFEEYFAKRKLEERDGHAVSIEEYLQRSDTAIIYPEAPEELSRLGTPEANGQEENDLPPGTPDAFAQLLTCPYCDRGYKRLTSLKEHIKYRHEKNEENFSCPLCSYTFAYRTQLERHMVTHKPGTDQHQMLTQGAGNRKFKCTECGKAFKYKHHLKEHLRIHSGEKPYECPNCKKRFSHSGSYSSHISSKKCIGLISVNGRMRNNIKTGSSPNSVSSSPTNSAITQLRNKLENGKPLSMSEQTGLLKIKTEPLDFNDYKVLMATHGFSGSSPFMNGGLGATSPLGVHPSAQSPMQHLGVGMEAPLLGFPTMNSNLSEVQKVLQIVDNTVSRQKMDCKTEDISKLKGYHMKDPCSQPEEQGVTSPNIPPVGLPVVSHNGATKSIIDYTLEKVNEAKACLQSLTTDSRRQISNIKKEKLRTLIDLVTDDKMIENHSISTPFSCQFCKESFPGPIPLHQHERYLCKMNEEIKAVLQPHENIVPNKAGVFVDNKALLLSSVLSEKGLTSPINPYKDHMSVLKAYYAMNMEPNSDELLKISIAVGLPQEFVKEWFEQRKVYQYSNSRSPSLERTSKPLAPNSNPTTKDSLLPRSPVKPMDSITSPSIAELHNSVTSCDPPLRLTKSSHFTNIKAVDKLDHSRSNTPSPLNLSSTSSKNSHSSSYTPNSFSSEELQAEPLDLSLPKQMREPKGIIATKNKTKATSINLDHNSVSSSSENSDEPLNLTFIKKEFSNSNNLDNKSNNPVFGMNPFSAKPLYTPLPPQSAFPPATFMPPVQTSIPGLRPYPGLDQMSFLPHMAYTYPTGAATFADMQQRRKYQRKQGFQGDLLDGAQDYMSGLDDMTDSDSCLSRKKIKKTESGMYACDLCDKTFQKSSSLLRHKYEHTGKRPHQCQICKKAFKHKHHLIEHSRLHSGEKPYQCDKCGKRFSHSGSYSQHMNHRYSYCKREAEEREAAEREAREKGHLEPTELLMNRAYLQSITPQGYSDSEERESMPRDGESEKEHEKEGEEGYGKLRRRDGDEEEEEEEEESENKSMDTDPETIRDEEETGDHSMDDSSEDGKMETKSDHEEDNMEDGM
notes: range 1-1214; Produced in COS1 cells from pCS3; tested in total cell extract; also called Myc-tagged SIP1; WT SIP1; not shown: (Myc)6 tag of pCS3 at the N-terminus

Data set [1] concerns SIP1 full size in cells (mouse). The experiment in a line: cell_activity. Particulars: luciferase reporter; derepressed by E-box mutations. On the technique in general: In a reporter assay the amount or activity of a reporter protein is the signal.
For data set [2], the target named is B2. The experiment in a line: EMSA double supershift with anti-Myc and anti-FLAG antibodies, Xbra-WT probe. The procedure:
For supershift experiments, the extracts were incubated with anti-Myc (Santa Cruz) or anti-FLAG (Kodak) antibodies. For competition, an excess of unlabeled double-stranded oligonucleotides was added together with the labeled probe. The binding reaction was loaded onto a 4% polyacrylamide gel (acrylamide/bis-acrylamide, 19:1) prepared in 0.5XTBE buffer. Following electrophoresis, gels were dried, and exposed to X-Ray film. All experiments were repeated at least three times.
To address this experimentally, we used a combination of differently tagged SIP1 in supershift experiments in EMSAs. […] The SIP1 complex generated with Myc-tagged SIP1 has a slightly slower migration than the FLAG-tagged complex (the Myc-tag is longer than the FLAG-tag). […] Using an anti-FLAG antibody, only the lower part of the complex corresponding to FLAG-tagged SIP1 is super-shifted, whereas about 50% of the radioactivity remains within the Myc-tagged SIP1 complex. […] Conversely, incubating the extract with an anti-Myc antibody super-shifted only the […] part of the complex corresponding to Myc-tagged SIP1 whereas 50% of the radioactivity is retained within the FLAG-tagged SIP1 complex. […] However, we detected no other super-shifted band corresponding to a potential double super-shift, viz. super-shifted with both anti-Myc- and anti-FLAG-antibodies.

For the data set “FLAG-tagged SIP1”, the target named is B1. The experiment in a line: immunoprecipitation with anti-Myc antibody, detection with anti-FLAG antibody. As for the experimental part:
Transfected cells were washed with PBS-O (137 mM NaCl, 2.7 mM KCl, 6.5 mM Na₂HPO₄, 1.5 mM KH₂PO₄), collected in detachment buffer (10 mM Tris pH7.5, 1 mM EDTA, 10% glycerol, with protease inhibitors (Protease inhibitor Cocktail tablets, Boehringer Mannheim)) and pelleted by low spin centrifugation. The cells were then solubilized in 10 mM Tris, pH 7.4, 125 mM NaCl, 1% Triton X-100. For direct electrophoretic analysis, gel sample buffer was added to the cell lysates and the samples were boiled. For other experiments, lysates were first subjected to immunoprecipitation with either anti-Myc or anti-FLAG antibodies. Antibodies were added to aliquots of the cell lysates, which were incubated overnight at 4° C. The antibodies and the bound protein(s) of the cell lysate were coupled as a complex to protein A-Sepharose for 2 hours at 4° C. The immunoprecipitates were washed 4 times in NET buffer (50 mM Tris pH 8.0, 150 mM NaCl, 0.1% NP40, 1 mM EDTA, 0.25% gelatin), resolved by SDS-polyacrylamide (7.5%) gel electrophoresis, and electrophoretically transferred to nitrocellulose membranes. […] Immunoreactive bands were detected with an enhanced chemiluminescence reagent (NEN). […]

E-cadherin promoter reporter displayed an activity (% decrease of promoter activity) in data set [1] of 80.
Regarding B1, the binding result in data set [2] was “no binding”.
Regarding B2, the binding result with FLAG-tagged SIP1 was “no binding”.
